T1: TX1BP3, O14907
T1 sequence (O14907 10-122, limits assumed, looked up): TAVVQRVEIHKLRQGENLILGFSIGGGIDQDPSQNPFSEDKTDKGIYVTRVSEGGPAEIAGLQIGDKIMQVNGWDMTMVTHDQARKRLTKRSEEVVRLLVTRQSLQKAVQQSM

T2: SNTB1, Q13884
T2 sequence (Q13884 107-205, limits assumed, looked up): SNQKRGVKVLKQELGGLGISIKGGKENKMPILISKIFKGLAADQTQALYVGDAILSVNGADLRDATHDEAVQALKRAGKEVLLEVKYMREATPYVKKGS

T3: GRIP1_3, Q9Y3R0
T3 sequence (Q9Y3R0 247-346, limits assumed, looked up): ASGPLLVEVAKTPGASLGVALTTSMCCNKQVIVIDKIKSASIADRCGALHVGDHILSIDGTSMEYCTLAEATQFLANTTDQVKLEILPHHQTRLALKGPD

T4: PDZRN3_1, Q9UPQ7
T4 sequence (Q9UPQ7 244-349, limits assumed, looked up): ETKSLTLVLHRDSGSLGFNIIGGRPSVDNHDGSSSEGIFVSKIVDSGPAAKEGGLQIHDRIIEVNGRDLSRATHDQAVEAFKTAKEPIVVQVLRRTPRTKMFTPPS

T5: GRIP1_5, Q9Y3R0
T5 sequence (Q9Y3R0 568-668, limits assumed, looked up): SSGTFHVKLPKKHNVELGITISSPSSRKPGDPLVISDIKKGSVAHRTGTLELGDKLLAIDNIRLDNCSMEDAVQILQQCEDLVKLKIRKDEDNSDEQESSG

T6: DFNB31_1, Q9P202
T6 sequence (Q9P202 135-233, limits assumed, looked up): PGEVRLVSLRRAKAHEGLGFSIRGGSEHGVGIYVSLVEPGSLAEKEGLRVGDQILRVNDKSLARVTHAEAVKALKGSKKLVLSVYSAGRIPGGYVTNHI

T7: RADIL, Q96JH8
T7 sequence (Q96JH8 971-1071, limits assumed, looked up): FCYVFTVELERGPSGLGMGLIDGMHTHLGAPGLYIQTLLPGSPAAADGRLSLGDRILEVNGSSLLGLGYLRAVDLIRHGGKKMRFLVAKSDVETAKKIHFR

T8: APBA3_1, O96018
T8 sequence (O96018 389-490, limits assumed, looked up): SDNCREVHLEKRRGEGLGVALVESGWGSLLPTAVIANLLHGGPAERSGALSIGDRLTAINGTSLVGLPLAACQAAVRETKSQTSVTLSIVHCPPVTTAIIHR

B1: PALLS, Q8WX93;Q8WX93-1 (peptide)
chain: NTALVESEDL
B2: CLDN10, P78369 (peptide)
chain: SKQFDKNAYV

Biological target: MAGI2_6, Q86UL8
Test: holdup assay
Design: key: below the threshold = too weak to quantify, mostly under pKd 3.1 to 4
Details: plain residues with an end cap or a label only (N-terminal biotin on a linker: ado-ado)

Sequence of MAGI2_6, Q86UL8 (Q86UL8 1141-1229): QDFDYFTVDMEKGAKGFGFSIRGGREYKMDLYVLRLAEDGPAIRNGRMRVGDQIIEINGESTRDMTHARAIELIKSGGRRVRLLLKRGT

| pKd | Binder |
| --- | --- |
| 4.01 | B1 |
| below the threshold | B2 |

Biological target: LNX1_1, Q8TBB1
Test: holdup assay
Design: key: below the threshold = too weak to quantify, mostly under pKd 3.1 to 4
Details: plain residues with an end cap or a label only (N-terminal biotin on a linker: ado-ado)

Sequence of LNX1_1, Q8TBB1 (Q8TBB1 261-371): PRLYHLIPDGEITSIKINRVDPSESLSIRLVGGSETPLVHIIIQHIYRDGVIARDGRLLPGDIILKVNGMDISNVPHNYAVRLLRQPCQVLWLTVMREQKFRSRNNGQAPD

| pKd | Binder |
| --- | --- |
| below the threshold | B1 |
| below the threshold | B2 |

Biological target: FRMPD4, Q14CM0
Test: holdup assay
Design: key: below the threshold = too weak to quantify, mostly under pKd 3.1 to 4
Details: plain residues with an end cap or a label only (N-terminal biotin on a linker: ado-ado)

Sequence of FRMPD4, Q14CM0 (Q14CM0 67-160): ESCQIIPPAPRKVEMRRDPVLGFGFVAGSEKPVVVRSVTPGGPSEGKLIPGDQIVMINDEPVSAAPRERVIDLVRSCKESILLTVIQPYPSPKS

| pKd | Binder |
| --- | --- |
| 3.59 | B2 |

Biological target: Inadl_6, Q8NI35
Test: holdup assay
Design: key: below the threshold = too weak to quantify, mostly under pKd 3.1 to 4
Details: plain residues with an end cap or a label only (N-terminal biotin on a linker: ado-ado)

Sequence of Inadl_6, Q8NI35 (Q8NI35 1058-1167): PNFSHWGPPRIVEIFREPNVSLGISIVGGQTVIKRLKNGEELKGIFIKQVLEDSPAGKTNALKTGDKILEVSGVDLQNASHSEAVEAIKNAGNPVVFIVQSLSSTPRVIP

| pKd | Binder |
| --- | --- |
| below the threshold | B1 |
| below the threshold | B2 |

Biological target: T1, TX1BP3, O14907
Test: holdup assay
Design: key: below the threshold = too weak to quantify, mostly under pKd 3.1 to 4
Details: plain residues with an end cap or a label only (N-terminal biotin on a linker: ado-ado)

| pKd | Binder |
| --- | --- |
| below the threshold | B1 |
| below the threshold | B2 |

Biological target: T2, SNTB1, Q13884
Test: holdup assay
Design: key: below the threshold = too weak to quantify, mostly under pKd 3.1 to 4
Details: plain residues with an end cap or a label only (N-terminal biotin on a linker: ado-ado)

| pKd | Binder |
| --- | --- |
| below the threshold | B1 |
| below the threshold | B2 |

Biological target: T3, GRIP1_3, Q9Y3R0
Test: holdup assay
Design: key: below the threshold = too weak to quantify, mostly under pKd 3.1 to 4
Details: plain residues with an end cap or a label only (N-terminal biotin on a linker: ado-ado)

| pKd | Binder |
| --- | --- |
| below the threshold | B1 |
| below the threshold | B2 |

Biological target: MAGI1_2, Q96QZ7
Test: holdup assay
Design: key: below the threshold = too weak to quantify, mostly under pKd 3.1 to 4
Details: plain residues with an end cap or a label only (N-terminal biotin on a linker: ado-ado)

Sequence of MAGI1_2, Q96QZ7 (Q96QZ7 456-580): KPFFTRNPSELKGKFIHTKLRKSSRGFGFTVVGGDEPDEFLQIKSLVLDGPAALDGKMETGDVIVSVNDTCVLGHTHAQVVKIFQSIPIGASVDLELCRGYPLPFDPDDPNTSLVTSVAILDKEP

| pKd | Binder |
| --- | --- |
| below the threshold | B1 |
| below the threshold | B2 |

Biological target: DLG4_3, P78352
Test: holdup assay
Design: key: below the threshold = too weak to quantify, mostly under pKd 3.1 to 4
Details: plain residues with an end cap or a label only (N-terminal biotin on a linker: ado-ado)

Sequence of DLG4_3, P78352 (P78352 306-403): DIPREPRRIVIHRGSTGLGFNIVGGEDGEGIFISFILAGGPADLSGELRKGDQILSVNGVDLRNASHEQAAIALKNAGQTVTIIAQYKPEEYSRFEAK

| pKd | Binder |
| --- | --- |
| below the threshold | B1 |
| below the threshold | B2 |

Biological target: PICK1, Q9NRD5
Test: holdup assay
Design: key: below the threshold = too weak to quantify, mostly under pKd 3.1 to 4
Details: plain residues with an end cap or a label only (N-terminal biotin on a linker: ado-ado)

Sequence of PICK1, Q9NRD5 (Q9NRD5 17-115): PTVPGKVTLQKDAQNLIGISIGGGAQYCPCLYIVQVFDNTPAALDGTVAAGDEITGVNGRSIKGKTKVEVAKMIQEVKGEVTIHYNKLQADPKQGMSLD

| pKd | Binder |
| --- | --- |
| below the threshold | B1 |
| below the threshold | B2 |

Biological target: T4, PDZRN3_1, Q9UPQ7
Test: holdup assay
Design: key: below the threshold = too weak to quantify, mostly under pKd 3.1 to 4
Details: plain residues with an end cap or a label only (N-terminal biotin on a linker: ado-ado)

| pKd | Binder |
| --- | --- |
| below the threshold | B1 |
| below the threshold | B2 |

Biological target: T5, GRIP1_5, Q9Y3R0
Test: holdup assay
Design: key: below the threshold = too weak to quantify, mostly under pKd 3.1 to 4
Details: plain residues with an end cap or a label only (N-terminal biotin on a linker: ado-ado)

| pKd | Binder |
| --- | --- |
| below the threshold | B1 |
| below the threshold | B2 |

Biological target: SNX27, Q96L92
Test: holdup assay
Design: key: below the threshold = too weak to quantify, mostly under pKd 3.1 to 4
Details: plain residues with an end cap or a label only (N-terminal biotin on a linker: ado-ado)

| pKd | Binder |
| --- | --- |
| 4.38 | B1 |
| 3.78 | B2 |

Biological target: GRIP2_4, Q9C0E4
Test: holdup assay
Design: key: below the threshold = too weak to quantify, mostly under pKd 3.1 to 4
Details: plain residues with an end cap or a label only (N-terminal biotin on a linker: ado-ado)

Sequence of GRIP2_4, Q9C0E4 (Q9C0E4 446-548): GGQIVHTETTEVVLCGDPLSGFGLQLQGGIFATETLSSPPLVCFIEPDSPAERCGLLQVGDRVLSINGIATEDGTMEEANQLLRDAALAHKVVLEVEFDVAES

| pKd | Binder |
| --- | --- |
| below the threshold | B1 |
| below the threshold | B2 |

Biological target: MAGI1_1, Q96QZ7
Test: holdup assay
Design: key: below the threshold = too weak to quantify, mostly under pKd 3.1 to 4
Details: plain residues with an end cap or a label only (N-terminal biotin on a linker: ado-ado)

Sequence of MAGI1_1, Q96QZ7 (Q96QZ7 1-106): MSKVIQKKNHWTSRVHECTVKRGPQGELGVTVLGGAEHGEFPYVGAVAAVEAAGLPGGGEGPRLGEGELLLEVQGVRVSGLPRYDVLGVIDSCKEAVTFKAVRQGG

| pKd | Binder |
| --- | --- |
| below the threshold | B1 |
| below the threshold | B2 |

Biological target: IL16_4, Q14005
Test: holdup assay
Design: key: below the threshold = too weak to quantify, mostly under pKd 3.1 to 4
Details: plain residues with an end cap or a label only (N-terminal biotin on a linker: ado-ado)

Sequence of IL16_4, Q14005 (Q14005 1229-1329): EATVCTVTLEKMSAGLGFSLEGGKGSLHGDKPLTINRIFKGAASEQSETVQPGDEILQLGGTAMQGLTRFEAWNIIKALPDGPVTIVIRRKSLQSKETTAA

| pKd | Binder |
| --- | --- |
| below the threshold | B2 |

Biological target: DLG5_1, Q8TDM6
Test: holdup assay
Design: key: below the threshold = too weak to quantify, mostly under pKd 3.1 to 4
Details: plain residues with an end cap or a label only (N-terminal biotin on a linker: ado-ado)

Sequence of DLG5_1, Q8TDM6 (Q8TDM6 617-713): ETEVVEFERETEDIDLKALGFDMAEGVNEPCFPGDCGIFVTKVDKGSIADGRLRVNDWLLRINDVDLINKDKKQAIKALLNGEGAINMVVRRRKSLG

| pKd | Binder |
| --- | --- |
| below the threshold | B1 |
| below the threshold | B2 |

Biological target: GRIP2_7, Q9C0E4
Test: holdup assay
Design: key: below the threshold = too weak to quantify, mostly under pKd 3.1 to 4
Details: plain residues with an end cap or a label only (N-terminal biotin on a linker: ado-ado)

Sequence of GRIP2_7, Q9C0E4 (Q9C0E4 934-1023): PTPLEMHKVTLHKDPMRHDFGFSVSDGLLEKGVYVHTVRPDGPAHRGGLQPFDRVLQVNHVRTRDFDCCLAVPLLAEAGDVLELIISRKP

| pKd | Binder |
| --- | --- |
| below the threshold | B1 |
| below the threshold | B2 |

Biological target: LNX1_2, Q8TBB1
Test: holdup assay
Design: key: below the threshold = too weak to quantify, mostly under pKd 3.1 to 4
Details: plain residues with an end cap or a label only (N-terminal biotin on a linker: ado-ado)

Sequence of LNX1_2, Q8TBB1 (Q8TBB1 371-470): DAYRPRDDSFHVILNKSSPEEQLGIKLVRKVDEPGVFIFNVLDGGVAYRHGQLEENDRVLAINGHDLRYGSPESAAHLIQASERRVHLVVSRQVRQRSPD

| pKd | Binder |
| --- | --- |
| below the threshold | B1 |
| below the threshold | B2 |

Biological target: GORASP1, Q9BQQ3
Test: holdup assay
Design: key: below the threshold = too weak to quantify, mostly under pKd 3.1 to 4
Details: plain residues with an end cap or a label only (N-terminal biotin on a linker: ado-ado)

Sequence of GORASP1, Q9BQQ3 (Q9BQQ3 1-208): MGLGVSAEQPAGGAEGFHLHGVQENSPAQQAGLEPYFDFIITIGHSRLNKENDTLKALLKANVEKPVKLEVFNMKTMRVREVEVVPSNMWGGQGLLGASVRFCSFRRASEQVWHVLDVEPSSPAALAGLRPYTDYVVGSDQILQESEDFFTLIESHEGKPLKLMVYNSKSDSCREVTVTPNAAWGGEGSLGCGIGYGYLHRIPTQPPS

| pKd | Binder |
| --- | --- |
| below the threshold | B1 |
| below the threshold | B2 |

Biological target: PDZRN4_1, Q6ZMN7
Test: holdup assay
Design: key: below the threshold = too weak to quantify, mostly under pKd 3.1 to 4
Details: plain residues with an end cap or a label only (N-terminal biotin on a linker: ado-ado)

Sequence of PDZRN4_1, Q6ZMN7 (Q6ZMN7 213-318): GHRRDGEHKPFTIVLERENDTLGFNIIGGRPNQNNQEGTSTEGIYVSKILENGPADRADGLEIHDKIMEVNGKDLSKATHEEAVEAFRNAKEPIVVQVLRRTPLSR

| pKd | Binder |
| --- | --- |
| below the threshold | B1 |
| below the threshold | B2 |

Biological target: SCRIB_3, Q14160
Test: holdup assay
Design: key: below the threshold = too weak to quantify, mostly under pKd 3.1 to 4
Details: plain residues with an end cap or a label only (N-terminal biotin on a linker: ado-ado)

Sequence of SCRIB_3, Q14160 (Q14160 999-1103): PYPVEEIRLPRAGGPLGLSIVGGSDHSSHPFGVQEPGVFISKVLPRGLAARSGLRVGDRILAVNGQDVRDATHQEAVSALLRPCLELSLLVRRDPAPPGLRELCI

| pKd | Binder |
| --- | --- |
| below the threshold | B2 |

Biological target: LNX1_3, Q8TBB1
Test: holdup assay
Design: key: below the threshold = too weak to quantify, mostly under pKd 3.1 to 4
Details: plain residues with an end cap or a label only (N-terminal biotin on a linker: ado-ado)

Sequence of LNX1_3, Q8TBB1 (Q8TBB1 500-596): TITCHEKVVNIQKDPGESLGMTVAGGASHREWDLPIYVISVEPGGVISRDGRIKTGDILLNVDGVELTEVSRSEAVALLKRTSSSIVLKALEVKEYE

| pKd | Binder |
| --- | --- |
| below the threshold | B1 |
| below the threshold | B2 |

Biological target: T6, DFNB31_1, Q9P202
Test: holdup assay
Design: key: below the threshold = too weak to quantify, mostly under pKd 3.1 to 4
Details: plain residues with an end cap or a label only (N-terminal biotin on a linker: ado-ado)

| pKd | Binder |
| --- | --- |
| below the threshold | B1 |
| below the threshold | B2 |

Biological target: GIPC2, Q8TF65
Test: holdup assay
Design: key: below the threshold = too weak to quantify, mostly under pKd 3.1 to 4
Details: plain residues with an end cap or a label only (N-terminal biotin on a linker: ado-ado)

Sequence of GIPC2, Q8TF65 (Q8TF65 112-203): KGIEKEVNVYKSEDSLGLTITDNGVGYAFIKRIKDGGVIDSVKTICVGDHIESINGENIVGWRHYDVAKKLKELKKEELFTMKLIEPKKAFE

| pKd | Binder |
| --- | --- |
| below the threshold | B1 |
| below the threshold | B2 |

Biological target: T7, RADIL, Q96JH8
Test: holdup assay
Design: key: below the threshold = too weak to quantify, mostly under pKd 3.1 to 4
Details: plain residues with an end cap or a label only (N-terminal biotin on a linker: ado-ado)

| pKd | Binder |
| --- | --- |
| below the threshold | B1 |
| 4.18 | B2 |

Biological target: MAGI2_5, Q86UL8
Test: holdup assay
Design: key: below the threshold = too weak to quantify, mostly under pKd 3.1 to 4
Details: plain residues with an end cap or a label only (N-terminal biotin on a linker: ado-ado)

Sequence of MAGI2_5, Q86UL8 (Q86UL8 915-1017): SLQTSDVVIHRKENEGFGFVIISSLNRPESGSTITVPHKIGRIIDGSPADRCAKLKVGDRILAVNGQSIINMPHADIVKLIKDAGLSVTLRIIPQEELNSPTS

| pKd | Binder |
| --- | --- |
| below the threshold | B1 |
| below the threshold | B2 |

Biological target: T8, APBA3_1, O96018
Test: holdup assay
Design: key: below the threshold = too weak to quantify, mostly under pKd 3.1 to 4
Details: plain residues with an end cap or a label only (N-terminal biotin on a linker: ado-ado)

| pKd | Binder |
| --- | --- |
| below the threshold | B1 |
| below the threshold | B2 |

Biological target: Inadl_1, Q8NI35
Test: holdup assay
Design: key: below the threshold = too weak to quantify, mostly under pKd 3.1 to 4
Details: plain residues with an end cap or a label only (N-terminal biotin on a linker: ado-ado)

Sequence of Inadl_1, Q8NI35 (Q8NI35 113-229): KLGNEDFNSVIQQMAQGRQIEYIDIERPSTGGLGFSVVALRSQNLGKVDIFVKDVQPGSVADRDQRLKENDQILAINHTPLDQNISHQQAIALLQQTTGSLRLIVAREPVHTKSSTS

| pKd | Binder |
| --- | --- |
| below the threshold | B1 |
| below the threshold | B2 |

From PMC9482650, “Quantitative fragmentomics allow affinity mapping of interactomes” (Nature Communications, 2022)
